Data: patent publication US20110003315A1

Molecular target: mouse VLDLR (skeletal muscle) (mouse) (UniProt P98156)
Test: cell-based or functional assay

Chain of mouse VLDLR (skeletal muscle) (mouse) (P98156 28-873): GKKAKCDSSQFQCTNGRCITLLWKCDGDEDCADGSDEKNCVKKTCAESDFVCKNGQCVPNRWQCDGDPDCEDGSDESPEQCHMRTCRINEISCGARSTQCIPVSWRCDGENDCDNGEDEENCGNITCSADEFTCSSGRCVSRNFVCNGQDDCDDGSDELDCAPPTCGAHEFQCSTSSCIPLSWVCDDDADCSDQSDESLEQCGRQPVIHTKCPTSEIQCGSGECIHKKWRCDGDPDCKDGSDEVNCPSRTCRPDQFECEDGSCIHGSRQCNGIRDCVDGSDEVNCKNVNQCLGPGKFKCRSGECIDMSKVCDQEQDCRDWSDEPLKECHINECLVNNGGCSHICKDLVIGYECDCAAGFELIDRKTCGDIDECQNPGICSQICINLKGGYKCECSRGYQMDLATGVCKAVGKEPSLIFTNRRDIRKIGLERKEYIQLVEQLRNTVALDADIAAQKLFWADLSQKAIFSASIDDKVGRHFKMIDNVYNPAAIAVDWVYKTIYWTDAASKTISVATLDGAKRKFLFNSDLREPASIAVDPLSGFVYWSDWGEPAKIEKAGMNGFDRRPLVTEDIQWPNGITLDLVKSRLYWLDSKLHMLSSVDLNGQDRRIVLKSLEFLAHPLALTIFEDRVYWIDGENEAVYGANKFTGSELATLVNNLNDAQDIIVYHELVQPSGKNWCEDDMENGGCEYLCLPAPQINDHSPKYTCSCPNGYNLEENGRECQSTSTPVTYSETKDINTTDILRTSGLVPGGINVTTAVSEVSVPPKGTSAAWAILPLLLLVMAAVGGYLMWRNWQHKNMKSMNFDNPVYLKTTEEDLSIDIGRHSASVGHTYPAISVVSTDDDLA

## wild type human PCSK9 with C-terminal V5 tag (from UniProt Q8NBP7 31-692) (enzyme)
  level of VLDLR in muscle of transgenic mice against non-transgenic control littermates: < 3 fold
